Reference: patent US20200121814A1 (GENERAL HOSPITAL, published 2020)
Bridge positions count the residues as written; N and C are the ends. Ends that are not written are not given here. * marks the point of attachment. Biotin = O=C1N[C@H]2[C@H](CS[C@H]2CCCCC(=O)*)N1

What was measured:
[1] = molecular target: HER3 extracellular domain (ECD) (R&D Systems) (human) (UniProt P21860); test: ELISA of purified phage on adsorbed HER3 ECD, anti-M13-HRP and ABTS
[2] = molecular target: HER3 on cells (MDA-MB-453, moderate HER3; HCC-1954, low HER3) (human) (UniProt P21860); test: cell binding on MDA-MB-453 cells (moderate HER3), 250 nM peptide, streptavidin-HRP and ABTS
[3] = molecular target: bovine serum albumin (bovine) (UniProt P02769); test: peptide ELISA on immobilized protein, 250 nM peptide, streptavidin-HRP and ABTS
[4] = molecular target: T1, HER3 extracellular domain (ECD) (R&D Systems) (human, UniProt P21860 20-643); test: peptide ELISA on immobilized ECD, 250 nM peptide, streptavidin-HRP and ABTS
T1 construct: extracellular domain; Adsorbed to Maxisorp plates in the ELISAs; also called HER3 ECD; ERBB3

[5] = molecular target: T2, EGFR extracellular domain (UniProt P00533 25-645, limits assumed); test: as above
T2 construct: extracellular domain; Immobilized on plate for peptide ELISA

[6] = molecular target: T3, HER2 extracellular domain (UniProt P04626 23-652, limits assumed); test: as above
T3 construct: extracellular domain; Immobilized on plate for peptide ELISA; also called ErbB2; neu

[7] = molecular target: T1, HER3 extracellular domain (ECD) (R&D …); test: phage binding to HER3, normalized to parent phage

T1 sequence (P21860 20-643): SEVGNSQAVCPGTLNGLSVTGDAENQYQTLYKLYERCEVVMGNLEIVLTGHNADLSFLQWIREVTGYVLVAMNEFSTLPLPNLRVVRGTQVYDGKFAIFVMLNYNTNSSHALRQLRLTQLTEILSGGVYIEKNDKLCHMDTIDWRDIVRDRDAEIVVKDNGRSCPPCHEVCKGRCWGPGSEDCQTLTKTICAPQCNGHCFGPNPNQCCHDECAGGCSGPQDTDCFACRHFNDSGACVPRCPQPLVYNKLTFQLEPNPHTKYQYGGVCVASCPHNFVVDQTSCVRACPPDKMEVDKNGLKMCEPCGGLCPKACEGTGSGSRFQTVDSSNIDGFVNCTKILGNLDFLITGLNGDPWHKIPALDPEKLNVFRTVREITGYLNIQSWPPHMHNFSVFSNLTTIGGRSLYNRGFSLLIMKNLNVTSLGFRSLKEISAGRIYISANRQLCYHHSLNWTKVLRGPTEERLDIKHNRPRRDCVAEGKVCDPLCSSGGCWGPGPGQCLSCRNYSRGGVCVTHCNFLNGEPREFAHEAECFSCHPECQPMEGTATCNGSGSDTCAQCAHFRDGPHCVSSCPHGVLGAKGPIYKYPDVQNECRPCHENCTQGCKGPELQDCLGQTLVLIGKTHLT
Sequence of HER3 on cells (MDA-MB-453, moderate HER3; HCC-1954, low HER3) (human) (P21860 20-1342): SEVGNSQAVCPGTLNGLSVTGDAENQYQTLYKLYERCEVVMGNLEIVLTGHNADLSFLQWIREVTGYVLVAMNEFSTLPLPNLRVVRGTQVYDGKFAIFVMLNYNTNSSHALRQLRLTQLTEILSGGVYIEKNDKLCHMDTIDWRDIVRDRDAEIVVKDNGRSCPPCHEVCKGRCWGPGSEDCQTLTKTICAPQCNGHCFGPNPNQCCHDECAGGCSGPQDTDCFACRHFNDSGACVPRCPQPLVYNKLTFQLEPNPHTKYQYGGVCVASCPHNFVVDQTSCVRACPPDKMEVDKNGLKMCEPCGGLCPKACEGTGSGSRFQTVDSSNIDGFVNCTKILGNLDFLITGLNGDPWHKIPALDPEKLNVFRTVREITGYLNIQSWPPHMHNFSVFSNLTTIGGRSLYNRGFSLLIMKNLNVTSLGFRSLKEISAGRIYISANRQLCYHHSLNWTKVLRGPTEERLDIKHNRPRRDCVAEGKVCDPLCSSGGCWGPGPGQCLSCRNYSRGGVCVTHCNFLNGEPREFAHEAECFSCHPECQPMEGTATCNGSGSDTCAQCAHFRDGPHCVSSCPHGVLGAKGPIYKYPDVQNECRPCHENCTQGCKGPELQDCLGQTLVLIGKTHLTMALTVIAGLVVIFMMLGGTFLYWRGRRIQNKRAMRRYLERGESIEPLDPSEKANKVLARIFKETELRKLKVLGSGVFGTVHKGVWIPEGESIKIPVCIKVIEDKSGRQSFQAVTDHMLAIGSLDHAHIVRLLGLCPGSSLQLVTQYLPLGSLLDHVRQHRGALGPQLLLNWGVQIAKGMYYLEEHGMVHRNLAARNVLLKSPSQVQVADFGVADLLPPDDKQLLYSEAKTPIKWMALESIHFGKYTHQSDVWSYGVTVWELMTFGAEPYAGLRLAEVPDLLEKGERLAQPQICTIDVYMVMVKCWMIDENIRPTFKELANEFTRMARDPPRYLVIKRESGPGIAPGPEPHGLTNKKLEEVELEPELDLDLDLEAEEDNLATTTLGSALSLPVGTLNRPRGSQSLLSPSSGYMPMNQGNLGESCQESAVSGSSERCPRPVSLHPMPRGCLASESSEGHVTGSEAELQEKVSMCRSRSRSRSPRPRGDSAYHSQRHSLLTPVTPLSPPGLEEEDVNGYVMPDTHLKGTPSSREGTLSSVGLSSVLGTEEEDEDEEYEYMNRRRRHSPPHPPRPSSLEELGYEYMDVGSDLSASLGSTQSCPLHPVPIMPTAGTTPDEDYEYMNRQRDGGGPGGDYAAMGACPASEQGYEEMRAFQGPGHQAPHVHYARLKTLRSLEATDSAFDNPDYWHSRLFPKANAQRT
Sequence of HER3 extracellular domain (ECD) (R&D Systems) (human) (P21860 20-643): as the sequence (P21860 20-643) above
Sequence of bovine serum albumin (bovine) (P02769 25-607 limits assumed): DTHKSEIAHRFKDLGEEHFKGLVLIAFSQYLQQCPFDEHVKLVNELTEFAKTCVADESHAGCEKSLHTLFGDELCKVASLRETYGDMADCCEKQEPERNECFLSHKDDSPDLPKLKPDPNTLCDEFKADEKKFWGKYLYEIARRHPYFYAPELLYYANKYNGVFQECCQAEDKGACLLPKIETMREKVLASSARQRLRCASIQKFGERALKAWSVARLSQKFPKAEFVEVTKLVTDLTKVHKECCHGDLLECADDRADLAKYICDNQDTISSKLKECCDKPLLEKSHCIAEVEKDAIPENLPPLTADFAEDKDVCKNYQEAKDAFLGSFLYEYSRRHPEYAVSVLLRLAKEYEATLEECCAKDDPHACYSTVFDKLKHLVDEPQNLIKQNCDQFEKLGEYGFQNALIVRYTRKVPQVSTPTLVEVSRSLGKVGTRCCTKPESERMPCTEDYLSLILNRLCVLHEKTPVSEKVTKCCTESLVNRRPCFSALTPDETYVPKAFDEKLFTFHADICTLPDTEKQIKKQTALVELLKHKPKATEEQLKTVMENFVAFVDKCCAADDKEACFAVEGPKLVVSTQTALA

With control phage bearing no peptide the absorbance (background subtracted, 405 nm) [1] was 0.007 absorbance.

control peptide showed an absorbance (405 nm) [2] of 0.12 absorbance.

B1: HER3P1 (biotin-conjugated, N-terminal tri-glycine linker) (peptide)
peptide: Biotin-GGGCLPTKFRSC
modifications: disulfide 4-12 (inferred); not fully specified
notes: The formulas of the description print a beta A before G-G-G; also called HER3 peptide; the peptide
For B1, the absorbance (405 nm) [3] was 0.15 absorbance, the “absorbance (405 nm)” value [4] was 0.82 absorbance and the “absorbance (405 nm)” value [5] was 0.21 absorbance. The “absorbance (405 nm)” value [6] was 0.22 absorbance.

In the case of CAPTKFRSC (peptide, not shown: large carriers) [phage M1 (alanine mutant at position 2 of the HER3P1 binding sequence)], the “decrease of binding against parent (HER3P1) phage” value (from here on “decrease of binding against parent”) [7] is reported as ≥ 50%.

CLATKFRSC (peptide, not shown: large carriers) [phage M2 (alanine mutant at position 3 of the HER3P1 binding sequence)] was tested, and the “decrease of binding against parent” value [7] was ≥ 50%.

In the case of CLPAKFRSC (peptide, not shown: large carriers) [phage M3 (alanine mutant at position 4 of the HER3P1 binding sequence)], the “decrease of binding against parent” value [7] is reported as ≥ 50%.

With CLPTKFASC (peptide, not shown: large carriers) [phage M6 (alanine mutant at position 7 of the HER3P1 binding sequence)] the “decrease of binding against parent” value [7] was ≥ 50%.

For CLPTKFRAC (peptide, not shown: large carriers) [phage M7 (alanine mutant at position 8 of the HER3P1 binding sequence)], the “decrease of binding against parent” value [7] was ≥ 50%.
